B1: target 1 insG 3' of 18,insC 3' of 3 (mixed)
RNA 1: CACCCGUGCAAAAAUGCAGGGGUCUAAAACUGAGCGGAUAACCUCUCUAUGG
RNA 2: GGGAAUGGAUCCACAUCUACGAAUUCGUACCAUAGGAGAGGUUAUCCGCUCCACCGAGAUCGGAAGAGCACACGU
B2: target 1 insA 3' of 19,insA 3' of 2 (mixed)
RNA 1: B1 RNA 1
RNA 2: B1 RNA 2 with G35A, C52A
B3: target 1 insC 3' of 18,insA 3' of 12 (mixed)
RNA 1: B1 RNA 1
RNA 2: B1 RNA 2 with G35C, U42A, A44U, U45A, C46U, G48C, C49G, U50C, C51U
B4: target 1 C4A,A14U (mixed)
RNA 1: B1 RNA 1
RNA 2: GGGAAUGGAUCCACAUCUACGAAUUCGUACCAUAGAGUGGUUAUCCGAUCACCGAGAUCGGAAGAGCACACGU
B5: target 1 insA 3' of 19,insU 3' of 1 (mixed)
RNA 1: B1 RNA 1
RNA 2: B1 RNA 2 with G35A, C52A, A53U
B6: target 1 U8G,A18U (mixed)
RNA 1: B1 RNA 1
RNA 2: B4 RNA 2 with A34U, U38A, U44G, A48C
B7: target 1 insA 3' of 11,insU 3' of 9 (mixed)
RNA 1: B1 RNA 1
RNA 2: GGGAAUGGAUCCACAUCUACGAAUUCGUACCAUAGAGAGGUAUAUUCCGCUCACCGAGAUCGGAAGAGCACACGU
B8: target 1 insA 3' of 17,insA 3' of 7 (mixed)
RNA 1: B1 RNA 1
RNA 2: B1 RNA 2 with G36A, C47A, G48C, C49G, U50C, C51U
B9: target 1 insU 3' of 9,insU 3' of 7 (mixed)
RNA 1: B1 RNA 1
RNA 2: B7 RNA 2 with A42U, U43A, A44U, U46C, C47U
B10: target 1 insA 3' of 19,insC 3' of 1 (mixed)
RNA 1: B1 RNA 1
RNA 2: B1 RNA 2 with G35A, C52A, A53C
B11: target 1 insC 3' of 20,insA 3' of 8 (mixed)
RNA 1: B1 RNA 1
RNA 2: B1 RNA 2 with U33C, A34U, G35A, C46A, G48C, C49G, U50C, C51U
B12: target 1 insA 3' of 19,insG 3' of 1 (mixed)
RNA 1: B1 RNA 1
RNA 2: B1 RNA 2 with G35A, C52A, A53G
B13: target 1 insA 3' of 21,insU 3' of 21 (mixed)
RNA 1: B1 RNA 1
RNA 2: B7 RNA 2 with G35U, G40A, U41G, A42G, A44U, U45A
B14: target 1 insC 3' of 14,insA 3' of 6 (mixed)
RNA 1: B1 RNA 1
RNA 2: B7 RNA 2 with G39C, U41G, A42U, U46C, C48A
B15: target 1 A16U,G17C (mixed)
RNA 1: B1 RNA 1
RNA 2: B4 RNA 2 with G35C, A36U, U38A, A48C

Residue numbers refer to the chain shown, from its start. Numbers in names are those of the source.

The target of the data set is T1, EsCas13d, nuclease-dead (Eubacterium siraeum, UniProt B0MS50, R295A;H300A;R849A;H854A).
T1 sequence: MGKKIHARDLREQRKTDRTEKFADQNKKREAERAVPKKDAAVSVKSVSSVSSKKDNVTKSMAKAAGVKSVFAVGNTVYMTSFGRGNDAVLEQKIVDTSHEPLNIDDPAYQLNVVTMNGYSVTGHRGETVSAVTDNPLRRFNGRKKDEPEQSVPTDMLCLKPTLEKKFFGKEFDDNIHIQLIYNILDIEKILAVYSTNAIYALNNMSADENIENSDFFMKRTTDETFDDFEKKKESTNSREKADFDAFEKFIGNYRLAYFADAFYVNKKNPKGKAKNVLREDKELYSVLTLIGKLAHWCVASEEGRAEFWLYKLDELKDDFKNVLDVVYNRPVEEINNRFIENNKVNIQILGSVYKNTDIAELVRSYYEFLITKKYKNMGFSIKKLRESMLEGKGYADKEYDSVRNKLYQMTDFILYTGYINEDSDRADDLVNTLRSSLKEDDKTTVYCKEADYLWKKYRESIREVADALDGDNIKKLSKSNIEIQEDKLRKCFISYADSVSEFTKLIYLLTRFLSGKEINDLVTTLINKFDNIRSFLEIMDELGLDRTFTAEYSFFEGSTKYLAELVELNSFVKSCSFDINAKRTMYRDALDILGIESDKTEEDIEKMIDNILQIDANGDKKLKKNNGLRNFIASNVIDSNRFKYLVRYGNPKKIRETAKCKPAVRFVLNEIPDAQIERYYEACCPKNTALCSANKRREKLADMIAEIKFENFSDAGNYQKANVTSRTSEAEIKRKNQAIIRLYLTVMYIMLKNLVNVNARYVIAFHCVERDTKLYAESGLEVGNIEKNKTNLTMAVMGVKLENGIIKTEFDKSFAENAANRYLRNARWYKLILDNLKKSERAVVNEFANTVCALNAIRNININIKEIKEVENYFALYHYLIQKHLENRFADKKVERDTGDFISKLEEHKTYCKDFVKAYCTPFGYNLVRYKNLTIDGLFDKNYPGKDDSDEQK
Briefly: crRNA (strand 1, pre-loaded); Mg2+; 40 mM Tris-HCl pH 7.5, 150 mM NaCl, 6 mM MgCl2, 1 mM DTT, 0.1% Tween-20, 0.2 mg/ml BSA; 25 C; 10 min per concentration, then washed. As to conditions: tags: His6-TwinStrep-SUMO cleaved; N-terminal SNAP kept (SNAP-Surface 488); label: 3' end held by stalled T7 RNA polymerase.
With B1, the affinity, expressed as Kd, was 80 ± 9 nM.

B2 yielded a Kd of 19.9 ± 2.1 nM. In the case of B3 it was 80 ± 22 nM. In the case of B4 it was approximately 60 nM; in that of B5, 20 ± 1.7 nM. As for B6, the Kd was 80 ± 19 nM. Consider B7, for which the Kd was 27.8 ± 2.2 nM.

In the case of B8, the Kd is 10.4 ± 0.5 nM. To B9 belongs 25.4 ± 1.3 nM; to B10, 18.6 ± 2.4 nM; to B11, 9.6 ± 0.5 nM. In the case of B12 it was 20 ± 1.3 nM; in that of B13, 9.1 ± 0.5 nM; in that of B14, 56 ± 12 nM. In the case of B15 it was 87 ± 23 nM.

As usually defined, the Kd is the free concentration of one partner at which half of the binding sites on the other are occupied at equilibrium, for simple one-to-one binding. Read a high Kd as weaker binding.

The record behind these values is paper PMC10786891, “Massively parallel profiling of RNA-targeting CRISPR-Cas13d”.
